Data set [1] deals with HUVECs. Briefly: HUVEC viability (cell counting Kit-8). Format: cell-based, human. The following applies: 2 days. The method, then:
In order to evaluate effects of deglyco C1 IgG on toxicity of endothelial cells, after treatment with deglyco C1 IgG, viability of HUVECs was measured. Viability was measured in accordance with the manufacturer's manual through cell counting Kit-8 (#CK04-13, Dojindo Laboratories, Kumamoto, Japan).
Background: Formazan colour is commonly taken as a measure of viable cells.

Data set [2] concerns U87 human glioma. Description: U87 tumor growth. Format: in vivo. The following applies: measured weekly for one month.
The test system of data set [3] is U87 human glioma cells. Description: tumor cell-derived Matrigel plug angiogenesis assay. Type of data set: in vivo, mouse. The following applies: single dose of 10 mg/kg, 2 weeks, nude mice. The method, then: (§1) In order to investigate in vivo effects of deglyco C1 IgG on tumor angiogenesis, tumor cell-derived Matrigel plug angiogenesis assay was conducted on thymus-removed nude mice. SNU182- and CFPAC-1 cells and U87 human glioma cells containing Matrigel were transplanted into thymus-removed nude mice in the presence of deglyco C1 IgG and bevacizumab with a single dose of 10 mg/kg or in the absence thereof. 2 weeks later, the Matrigel plug was removed and the total hemoglobulin content of each group was measured with an ELISA reader.

Data set [4] concerns CFPAC-1 cells. The data set is described as above. Type of data set: in vivo, mouse. The conditions noted are these: single dose of 10 mg/kg, 2 weeks, nude mice. As for the experimental part:
as §1

In data set [5] the test system is SNU182 cells. The data set is described as above. Format: in vivo, mouse. The following applies: single dose of 10 mg/kg, 2 weeks, nude mice. As for the experimental part: as §1
For data set [6], the system named is VEGF-dependent microvessel formation. Briefly: mouse Matrigel plug assay, VEGF-dependent microvessel formation. Format: in vivo. The method, then:
In order to observe in vivo efficacies of deglyco C1 IgG on VEGF-dependent angiogenesis, a mouse Matrigel model was established, hemoglobin level was measured as a marker of microvessel formation, and inhibitory activities against microvessel formation of deglyco C1 IgG and bevacizumab were compared by a mouse Matrigel plug assay.

In data set [7] the test system is VEGF-dependent blood vessel growth in rat aorta. Description: ex vivo rat aortic ring assay. The conditions noted are these: cultured in combination with VEGF. As for the experimental part:
In order to further investigate effects of deglyco C1 IgG on VEGF-dependent angiogenesis, ex vivo rat aortic ring assay was conducted in the presence or absence of deglyco C1 IgG and bevacizumab. Blood vessels were almost not grown in the rat aorta in endothelial basal medium (EBM), whereas most blood vessels were grown in the rat aorta under VEGF expression conditions.

Data set [8] concerns HCT116 human colorectal cancer cells. Description: Matrigel plug angiogenesis assay, CD31 microvessel density. Format: in vivo. The following applies: single dose of 5 mg/kg, 14 days. As for the experimental part:
(§2) Matrigel plug angiogenesis assay was conducted in the presence of deglyco C1 IgG or bevacizumab with a single dose of 5 mg/kg or the absence thereof using HCT116 human colorectal cancer cells and bevacizumab-applied HCT116 human colorectal cancer cells (HCT116 and HCT116/Beva). 14 days later, the Matrigel plug was removed, and immunohistochemistry was conducted on CD31 and microvascular markers. A microvessel density was measured by quantifying CD31 positive per field in an image each obtained by a confocal microscope.

For data set [9], the system named is HCT116/Beva cells. The description is as above. Format: in vivo. The following applies: single dose of 5 mg/kg, 14 days. The method, then:
as §2

Data set [10] has as its target T1, mouse CLEC14a on mouse aortic endothelial cells (MAECs) (mouse, UniProt Q8VCP9 22-459).
T1 construct: whole, on cells
T1 sequence (looked up): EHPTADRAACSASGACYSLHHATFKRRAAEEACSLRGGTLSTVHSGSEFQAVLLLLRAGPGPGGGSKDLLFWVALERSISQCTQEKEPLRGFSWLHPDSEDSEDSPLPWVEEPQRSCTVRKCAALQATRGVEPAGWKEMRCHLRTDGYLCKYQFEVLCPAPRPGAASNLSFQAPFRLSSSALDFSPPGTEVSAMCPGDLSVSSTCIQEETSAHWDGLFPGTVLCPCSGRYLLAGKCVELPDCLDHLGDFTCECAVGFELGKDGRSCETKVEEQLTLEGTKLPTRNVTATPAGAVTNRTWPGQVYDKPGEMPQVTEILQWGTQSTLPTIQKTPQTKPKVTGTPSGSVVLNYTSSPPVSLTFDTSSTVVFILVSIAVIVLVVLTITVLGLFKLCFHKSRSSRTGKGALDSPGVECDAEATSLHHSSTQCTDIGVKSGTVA
Description: flow cytometry on MAEC. As for the experimental part: (§3) In order to identify cross-species reactivity of the optimized antibodies, HUVECs (human umbilical vein endothelial cells) and MAECs (mouse aortic endothelial cells) were each cultured, the two cell groups were treated with 20 ug/ml of the parent antibody (original C1), deglyco C1, and clones 1, 13 and 16, and whether or not binding ability exists on the surface of two types of cells was identified by flow cytometry.

For data set [11], the target named is T2, human CLEC14a on human umbilical vein endothelial cells (HUVECs) (human, UniProt Q86T13 22-490).
T2 construct: whole, on cells; also called CLEC14a on HUVEC surfaces
T2 sequence (looked up): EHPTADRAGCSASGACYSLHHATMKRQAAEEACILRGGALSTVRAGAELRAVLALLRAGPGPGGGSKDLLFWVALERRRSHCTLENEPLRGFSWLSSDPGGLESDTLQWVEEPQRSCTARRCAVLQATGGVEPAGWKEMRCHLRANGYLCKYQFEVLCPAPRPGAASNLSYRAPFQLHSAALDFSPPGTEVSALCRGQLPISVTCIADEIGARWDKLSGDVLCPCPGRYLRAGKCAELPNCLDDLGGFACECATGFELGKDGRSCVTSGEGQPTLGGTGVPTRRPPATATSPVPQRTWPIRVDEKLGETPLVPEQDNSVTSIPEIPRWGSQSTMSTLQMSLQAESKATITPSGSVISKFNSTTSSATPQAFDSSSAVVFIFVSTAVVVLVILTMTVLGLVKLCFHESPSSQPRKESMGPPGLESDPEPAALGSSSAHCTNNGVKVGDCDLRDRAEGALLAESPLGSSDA
Briefly: flow cytometry on HUVEC. As for the experimental part:
as §3
A general note: In flow cytometry, cells or beads pass a laser one at a time.

Data set [12] deals with T3, mclec14a-CTLD-Fc (mouse, UniProt Q8VCP9 31-172, limits assumed).
T3 construct: domain: C-type lectin-like domain (CTLD); also called mouse clec14a-CTLD-Fc; mouse CTLD; not shown: Fc
T3 sequence (looked up): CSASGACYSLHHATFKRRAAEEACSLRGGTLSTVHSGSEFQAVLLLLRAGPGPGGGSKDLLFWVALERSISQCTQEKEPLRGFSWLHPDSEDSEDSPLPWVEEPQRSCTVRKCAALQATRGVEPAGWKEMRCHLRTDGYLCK
Briefly: ELISA on mclec14a-CTLD-Fc.

Data set [13] addresses T4, hclec14a-ECD-myc (human, UniProt Q86T13 22-397).
T4 construct: extracellular domain; Purified protein; also called extracellular domain of human clec14a; not shown: myc tag
T4 sequence (looked up): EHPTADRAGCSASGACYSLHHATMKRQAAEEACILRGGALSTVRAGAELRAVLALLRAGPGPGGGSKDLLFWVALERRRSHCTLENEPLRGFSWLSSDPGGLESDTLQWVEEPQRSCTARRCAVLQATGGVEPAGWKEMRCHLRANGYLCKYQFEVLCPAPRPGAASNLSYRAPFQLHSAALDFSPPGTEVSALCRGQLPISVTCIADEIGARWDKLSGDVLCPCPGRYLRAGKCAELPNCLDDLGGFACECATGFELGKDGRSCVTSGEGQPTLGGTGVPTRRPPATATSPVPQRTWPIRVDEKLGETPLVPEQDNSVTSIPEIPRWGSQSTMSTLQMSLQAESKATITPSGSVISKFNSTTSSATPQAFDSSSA
Description: biolayer interferometry (Octet RED96), curves at 62.5, 31.25, 15.625 and 7.8125 nM.

Data set [14] addresses T4, hclec14a-ECD-myc. Briefly: biolayer interferometry, Octet RED96. Background: Biolayer interferometry detects binding as a change in optical thickness at a sensor tip.
Data set [15] has as its target T4, hclec14a-ECD-myc. Description: ELISA, hclec14a-CTLD-Fc-HRP with hclec14a-ECD. The method, then:
In addition, hclec14a-CTLD-Fc-HRP was incubated together with purified hclec14a-ECD in the presence of an increasing concentration of parent antibody IgG or deglyco C1 IgG, or in the absence thereof.

In data set [16] the target is T2, human CLEC14a on human umbilical vein …. Description: cell ELISA on HUVECs coated on the plate. As for the experimental part:
In order to analyze action mechanisms of deglyco C1 IgG at a molecule-scale, specifically, in angiogenesis, HUVECs were treated with hclec14a-CTLD-Fc-HRP (HRP-labeled hclec14a-CTLD-Fc) in the absence or presence of an increasing concentration of parent antibody IgG or deglyco C1 IgG.

By Kd is commonly meant the equilibrium constant for the complex coming apart. The low end stands for a tighter complex, the high end for a looser complex. Broadly, the koff is a measure of how fast the partners let go of each other. Low values mean a long-lived complex, high ones a short-lived complex. Usually kon stands for a measure of how fast the partners come together. Higher therefore signals fast association.

As to `O=c1[nH]cc(F)c(=O)[nH]1` [Opti 5-FU, 5-fluorouracil, reference compound], the “viability of HUVECs” value in [1] was “significantly reduced viability”.

bevacizumab [reference compound]: the “tumor size of U87 cells” value in [2] is recorded as “significantly reduces the tumor sizes”. The “hemoglobin content, U87-derived” value in [3] is “significantly reduced hemoglobin”. For the same molecule, the “hemoglobin content, CFPAC-1-derived” value in [4] was “significantly reduced hemoglobin”. Also, in [5], the “hemoglobin content, SNU182-derived” value is recorded as “significantly reduced hemoglobin”. Further, the “hemoglobin content (microvessel formation)” value in data set [6] is listed as “significantly reduced a hemoglobin content”. Besides, the “number of blood vessels grown in the rat aorta” value in [7] was “reduced the number of blood vessels grown in the rat aorta”. The “microvessel formation (CD31 positive per field), HCT116” value in [8] is listed as “significantly reduced microvessel formation ability”. In data set [9], the “microvessel formation (CD31 positive per field), HCT116/Beva” value is given as “not suppressed”.

B1: Opti 13 (antibody, V domains shown)
VH: EVQLVESGGGLVQPGGSLRLSCAVSGFTFSGYDMSWIRQAPGKGLEWVAGIYPDGGNTYYADSVKGRFTISRDDSKNTFYLQMNSLRAEDTAVYYCARGAMEQVLGPFDLWGQGTLVTVSS
VL: DIQLTQSPSSLSASVGDRVTITCTGSSSNIGRCGVTWYQQKPGKAPKLLIYADSHRPSGVPSRFSGSGSGTDFTLTISSLQPEDFATYYCGAWDDSLSGYVFGQGTKVEIKR
notes: IgG from HEK293 cells; also called clone 13; optimized antibody clone 13
Regarding B1, the binding result in data set [10] and in data set [11] was “binds” in each case.

B2: deglyco C1 IgG (antibody, V domains shown)
VH: EVQLVESGGGLVQPGGSLRLSCAVSGFTFSGYDMSWIRQAPGKGLEWVAGIYPDGGNTYYADSVKGRFTISRDDSKNTFYLQMNSLRAEDTAVYYCARGATWWVLGPFDYWGQGTLVTVSS
VL: DIQLTQSPSSLSASVGDRVTITCTGSSSNIGRCGVTWYQQKPGKAPKLLIYADSHRPSGVPSRFSGSGSGTDFTLTISSLQPEDFATYYCGAWDDSLSGYVFGQGTKVEIKR
notes: IgG expressed in HEK293 cells; In some assays conjugated with HRP; also called Deg C1; deglyco C1 IgG-HRP (HRP-conjugated form)
With B2, the binding result in data set [12] and in data set [10] was “binds” each time. Also, the figures for the Kd in [13] and in data set [14] were 6.07 nM and 6 nM, respectively. This molecule also showed a dissociation rate constant (koff) in [13] of 0.000297 s⁻¹. In data set [13], the kon amounted to 49000 M⁻¹ s⁻¹.

B3: Opti 1 (antibody, V domains shown)
VH: EVQLVESGGGLVQPGGSLRLSCAVSGFTFSGYDMSWIRQAPGKGLEWVAGIYPDGGNTYYADSVKGRFTISRDDSKNTFYLQMNSLRAEDTAVYYCARGAATKVLGKFDCWGQGTLVTVSS
VL: DIQLTQSPSSLSASVGDRVTITCTGSSSNIGRCGVTWYQQKPGKAPKLLIYADSHRPSGVPSRFSGSGSGTDFTLTISSLQPEDFATYYCGAWDDSLSGYVFGQGTKVEIKR
notes: IgG from HEK293 cells; also called optimized antibody clone 1
With B3, the binding result in data set [10] and in data set [11] was “binds” throughout.

B4: hclec14a-CTLD-Fc (Fc fusion, human, UniProt Q86T13 31-172, looked up)
chain: CSASGACYSLHHATMKRQAAEEACILRGGALSTVRAGAELRAVLALLRAGPGPGGGSKDLLFWVALERRRSHCTLENEPLRGFSWLSSDPGGLESDTLQWVEEPQRSCTARRCAVLQATGGVEPAGWKEMRCHLRANGYLCK
notes: domain: C-type lectin-like domain (CTLD); also called human clec14a-CTLD-Fc; human CTLD; not shown: Fc
As to B4, the binding result in [15] and in data set [16] was “binds” throughout.

The values above are taken from patent US20190309074A1, “DEGLYCOSYLATED ANTIBODY SPECIFICALLY BINDING TO CLEC14A AND USES THEREOF” (WOORI TECHNOLOGIES CORPORATION, priority 2016, published 2019).
